Source: article PMC9821441, “Quick and Spontaneous Transformation between [3Fe–4S] and [4Fe–4S] Iron–Sulfur Clusters in the tRNA-Thiolation Enzyme TtuA” (International Journal of Molecular Sciences, 2023)

Target: T1, [4Fe–4S]-TtuA (tRNA-thiolation enzyme TtuA from Thermus thermophilus HB27, reconstituted with a [4Fe–4S] … (Thermus thermophilus (HB27 strain), UniProt Q72LF3 1-321)
T1 construct: TtuA, tRNA-thiolation enzyme, Thermus thermophilus HB27; Carries a [4Fe–4S] cluster with the unique (non-cysteine-chelated) Fe; same polypeptide as m2, only the cofactor differs; also called TthTtuA; reconstituted TtuA; source: [4Fe–4S] reconstituted with DTT, FeCl3 and Na2S
T1 sequence (looked up): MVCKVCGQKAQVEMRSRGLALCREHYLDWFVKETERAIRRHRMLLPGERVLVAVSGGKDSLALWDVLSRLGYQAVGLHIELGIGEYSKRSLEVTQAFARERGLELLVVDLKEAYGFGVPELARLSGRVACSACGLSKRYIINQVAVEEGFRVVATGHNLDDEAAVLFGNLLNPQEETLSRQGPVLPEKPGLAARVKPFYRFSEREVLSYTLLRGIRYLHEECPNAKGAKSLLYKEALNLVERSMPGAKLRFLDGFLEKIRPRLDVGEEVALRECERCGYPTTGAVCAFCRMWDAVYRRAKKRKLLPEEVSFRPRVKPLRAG
Assay: EPR spectroscopy; TtuA mixed with TtuB–COSH to a final concentration of 0.5 mM, 25 °C for 5 min, strictly anaerobic; then 5-fold molar excess dithionite, 25 °C for 10 min, frozen; CW X-band EPR (~9.59 GHz) at 12 K for [4Fe–4S]1+ and 40 K for [3Fe–4S]1+; reads the Fe–S cluster only
Settings: both partners purified

B1: TtuB–COSH (sulfur donor protein TtuB from Thermus thermophilus HB27 with a C-terminal thiocarboxylate) (natural protein, Thermus thermophilus (HB27 strain), UniProt Q72LF4 1-65, looked up)
chain: MRVVLRLPERKEVEVKGNRPLREVLEELGLNPETVVAVRGEELLTLEDEVREEDTLEVLSAISGG
modifications: not fully specified (C-terminus)
notes: TtuB, sulfur donor (sulfur carrier) protein, Thermus thermophilus HB27; source: E. coli B834 (DE3), pTYB1, purified on chitin resin; intein cleaved with 50 mM ammonium sulfide; not shown: intein, C-terminal, cleaved
binding result: binds
